From the nanobody polyreactivity screen of Harvey et al. (2022)

Assay: yeast display, Sf9 membrane polyspecificity reagent, FACS + sequencing; frameworks hold sequencing errors
Summary of the method: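 Genes from sorted yeast were amplified by colony PCR, read by MiSeq 2 × 250 sequencing and filtered on CDR length. These cells carried a synthetic nanobody library in Saccharomyces cerevisiae BJ5465 and were sorted by FACS into low and high (top ~1%) gates on anti-HA and streptavidin fluorescence. Polyreactivity is labelled according to the gate of origin.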

| Sequence | polyreactivity (PSR sort gate) |
| --- | --- |
| QVQLEESGGGLVQAGGSLRLSFAASGRIFRYYAMGWYRHAPGKERELVPRMSWSGGSTHYADSVKGRFTISRDNAKNTVYLQMNSLTPEDTAVYYCAADGNGYPYRAGRTYDYWGQGTQVTVSS | low polyreactivity |
| QVQLEESGGGLVQAGGSLRLSSAASGRTLVHYAIGSYRQAPGKEREMVAAISIGGDSTYADSVKGRFTISRDNAKNTVYLQMNSLKPEDTAVYYCAASGWWDFFDPYFKFDYWGQGTQVTVSS | low polyreactivity |
| QVQLEESGGGLVQAGGSLRLTCAASGFIFKSYTMGWYRQATGKEMELVAAITSTGGGTYYADSVKGRFTISRDNAKNTVYLQMNSLKPEDTAVYYCNARTYVTVDYDFWGQGTQVTVSS | high polyreactivity |
| QVQLEESGGGLVQAGGSLRLTCAASGFIFQYYTMGWYRQAPGKERELVASITGTGGSTYYADSVKGRFTISRDNAKNTVYLQMNSLKPEDTAVYYCAAREGWGYEYDYWGQGTQVTVSS | high polyreactivity |
| QVQLEESGGGLVQAGGSLRLTCAASGRIFYRYGMGWYRQATGKERELVAAISRTGGSTYYADSVKGRFTISRDNAKNSVYLQMNSLKPEDTAVYYCNATSNYRYDFWGQGTQVTVSS | low polyreactivity |
| QVQLEESGGGLVQAGGSLRLTCAASGRTFLGNAMGSYRQAPGKEREFVAVISHSGGGTSYADSVKGRFTISRDNAKNTVYLQMNSLKAEETAVYYCAAYSVSSTTWYYYDEYGYWGQGTQVTVSS | low polyreactivity |
| QVQLEESGGGLVQAGGSLRLTCAASGSIFGSYTMGWYRKAPGKERELVAVISYSGGSTYYADSVKGRFSISRDNAKNTVYLQMNSLKPEDTAVYYCNAARKGVGYVHPYDFWGQGTQVTVSS | high polyreactivity |
| QVQLEESGGGLVQAGGSLRLTCAASGSTFRYYALGWYRQAPGKERELVAAISGSGGRTYYADSVKGRFTISRDNAKNTVYLQMNSLKPEDTEVYYCNTRGRRTDYDYWGQGTQVTVSS | high polyreactivity |
| QVQLEESGGGLVQAGGSLRLTCAASGSTFVRYVMGWYRQAPGKERELVAAISRRGGSTYYADSVKGRFTISRDNAKNTVYLEMNSLKPEDTAVYYCARTVGYRTLLESDSWGQGTQVTVSS | high polyreactivity |
| QVQLEESGGGLVQAGGSLRLTCAGSGRIFGIYAMGWYRQAPGKERQLVAAIRDSGSRTYYADSVKGRFTISRDNAKNTVYLQMNRLTPEDTAVYYCAARTYTYPYFGGYQYTYNYWGQGTQVTVSS | low polyreactivity |
| QVQLEESGGGLVQAGGSLSLSCAASGSSLDTYVMGWYRQAPGKEREVVAAISSDTSTNYADSVKGRFTISRDNAKNTVYLQMNSLNPEDTAVYYCAAVGSYYGWYQGFDYWGQGTLVTVSS | low polyreactivity |
| QVQLEESGGGLVQAGGSLSLTCAASGRTFFTYAMGWYRQAPGKERELVAAIRWTGGRTTYADSVKARFSISRDNAKNTVYLQMISLKPEDTAVYYCAARVGRTYASYSTGNYYWGQGTQVTVSS | high polyreactivity |
| QVQLEESGGGLVQEGGSLRLICAASGRIFGSYVMGWYRQAPGKERELVAAISRRGGSTYYADSVKGRFTISRDNAKNTVYLQMNSLKTEVTAVYYCAAEFSPSSNPYDYWGQGTQVTVSS | high polyreactivity |
| QVQLEESGGGLVQEGGSLRLSCAASGRTFYYYDMGWYRQAPGKERELVAAITWSGGSTYYADSVKGRFTISRDNAKNTVYLQRNCLKREDTAVYYCAADVTYSRYEYWGQGSQVTVSS | low polyreactivity |
| QVQLEESGGGLVQGGGSLRLSCAGSGRIFQLNAMGRYRQAPGIERELVADIRWSSGSTYYADTVKGRFTISRDNAKNSVYFQMYSLKPEDTAVYFCAGRVLYVHRQVYKMDYWGQGTQVTVSS | high polyreactivity |
| QVQLEESGGGLVQPGGSLRLSCAASGRIFADYAMGWYRQAPGKERELVADIRQSGGRTYYADSVKGRFTISRDNAKNTVYLQMNSLKPEDTALYYCATDYGSWGDYSGKYDYWGQGTQVTVSS | low polyreactivity |
| QVQLEESGGGVVQAGGSLRLSCAASGRIFNYYTMGWYRQATGKERELVARINSSGSTNLRRLCEGALHNFTRQCEVYRLFTDEQPETGRYRVYYCNADTKRSSREYEYWGQGTQVTVSS | low polyreactivity |
| QVQLEESGGRLVQAGGSLRLSCAASGRIFNYYAMGWYRQAPGQERELVAAISNGGSTYYADSVKGRFTISRDNAKNTVYLQMNSLKPEDTAVYYGAAYQTYYARTELDYWGQGTLVTVSS | high polyreactivity |
| QVQLEESGGVLVQAGGSHRLRCAASGRTIGWYAMGWYRQAPRKERELVAAIRSSTGSTYYADSVKGRFTISRDNAKNTVFLQMNSLKPEDTAVYDCAKRRADYSPRYGYWGQGTQVTVSS | high polyreactivity |
| QVQLEESGGVLVQAGGSLRLSCAASGRTFGHYAMGWYRPAPGKERELVAAITRDDGTNYADSVKGRFTISGDNAKNTVYLQMNRLKPEDTAVYYCNADVWLRRVYDYWGQGTQVTVSS | low polyreactivity |
| QVQLEESGRGLVQAGGSLRLSCAASGSTCYDYAMGWYRQAPGKERELVAASSRIGARTYYADSVKGRFTISRDNAKNTVYLQMNSQKPEDTAGYYCAATRVYSDYKYWGQGTQVTVSS | high polyreactivity |
| QVQLEESGVGLVQAGGSLRLSCAASGRTFLRNAMGWYRQAPGKEMELVAAISWRGGSTYYADSVKGRFTISRDNAKNTVYLEMNSLKPEDTAVYYCNTFPSQYLWYDYWGQGTQVNVSS | high polyreactivity |
| QVQLEESVGGLDQAVGSLRLSCAASGFTFNRYTMGWYRQAPGKEREFVASITRSGGSTYYADSVKGRFTISRDNAKNTVYLQMNSLTPEDTAVYYCAPVYQYSSRYDHWGQGTQVTVSS | high polyreactivity |
| QVQLEESVGGLVQAGGSLRISCAASGRTFKLYAMGRKRQAPGKERELVATITRRGGSTYYADSVKGRFTISRDNAKNTVYLQMNSLKPEDTAVYYCASDAIGYYGTYDYWGQGTQVTVSS | high polyreactivity |
| QVQLEESVGGLVQAGGSLRLSCAASGITFYDYTMGWYRQAPGKERELVAAISSRGGSTYYADSVKGRFTISRDNAKNTVYLQMNSLKPEDTAVYYCNARYNSWRYLAQYNYWGQGTQVTVSS | high polyreactivity |
| QVQLEESVGGLVQAGGSLRLSCAASGRTFGRYAMGWYRQAPGKERELVAGISRSGDSTHYADSVKGRFTISRDNAKKTVYLQMNSLKPEDTAVYYCNKETPTIGARKYEDWGQGTQVTVSS | low polyreactivity |
| QVQLEESVGGLVQAGGSLRLTCAASGSIFKTNAIGWYRQAPGKERELVAAIRASGGSTYYADSVKGRFTISRDNAKNSVYLQMNSLKPEDTAVYYCAARYWFKYYWGQGTQVTVSS | low polyreactivity |
| QVQLEESWGGLVQAGGSLRLSCAASGRTFDTYAMGWNRQAPGKERELVAAITSGGSTYYADSVKGRFTISRDNAKNTVYLQMNSLKPEDTAVYYCAVSGQLYAYRYGYWGQGTQVTVSS | low polyreactivity |
| QVQLEETGGGLVQAGGSLRLSCAASGFTFYQYAMGWYRKAPRKERELVAAISSSGTSTYYADSVKGRFTISRDNAKNTVYLQMNSLKPEDTAVYYCAARRYKLFYWGQGTQVTVSS | low polyreactivity |
| QVQLGESCGRLVQAGGSLRLSCADSGLTFSVYAMGWYRQSPGKETELVAAISYSGDSTYADSVKGRFTISRDNAKNTVYLQMNSLKPEDTAGYYCHAPLVHQGYRRWYDYWGQGTQVTVSS | low polyreactivity |
